From article PMC12802937 (Nucleic Acids Research, 2026)
Each block holds one binder with its values, some of them ahead of it.

Experiments:
Conditions in all cases: both partners purified
[1] = molecular target: T1, RNF-MD complex (strep-SUMO-RNF20 residues 321–900 with MBP-RNF40 residues 327–926) (human, UniProt Q5VTR2 321-900; O75150 327-926); experiment: SPR; RNF-MD immobilised on a CM5 chip, intein-WAC flown over; Biacore 8K, 25°C, 20 mM HEPES (pH 7.5), 200 mM sodium chloride, 0.02% Tween 20
T1 construct: RNF20, human, residues 321-900; RNF40, human, residues 327-926; heterodimer; also called RNF20/RNF40; WT; source: E. coli BL21 Rosetta (DE3), purified from the mixed cell extract (strep-tactin, dextrin, gel filtration); copies: 1 + 1
T1 sequence (Q5VTR2 321-900, chain 1 of 2): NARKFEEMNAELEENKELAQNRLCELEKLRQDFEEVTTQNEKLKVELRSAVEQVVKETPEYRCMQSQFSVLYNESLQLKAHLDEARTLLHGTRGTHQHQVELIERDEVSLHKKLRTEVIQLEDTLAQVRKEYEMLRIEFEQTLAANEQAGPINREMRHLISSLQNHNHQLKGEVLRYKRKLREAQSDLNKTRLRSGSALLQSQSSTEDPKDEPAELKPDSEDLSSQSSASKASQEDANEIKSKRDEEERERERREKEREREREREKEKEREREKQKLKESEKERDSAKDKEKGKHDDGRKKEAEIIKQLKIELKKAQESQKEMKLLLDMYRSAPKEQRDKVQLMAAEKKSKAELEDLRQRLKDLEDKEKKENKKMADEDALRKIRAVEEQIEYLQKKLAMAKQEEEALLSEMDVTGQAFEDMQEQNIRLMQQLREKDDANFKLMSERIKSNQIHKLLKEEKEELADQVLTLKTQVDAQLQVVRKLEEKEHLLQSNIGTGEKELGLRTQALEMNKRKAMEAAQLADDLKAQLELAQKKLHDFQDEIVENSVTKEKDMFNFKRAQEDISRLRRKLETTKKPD
T1 sequence (O75150 327-926, chain 2 of 2): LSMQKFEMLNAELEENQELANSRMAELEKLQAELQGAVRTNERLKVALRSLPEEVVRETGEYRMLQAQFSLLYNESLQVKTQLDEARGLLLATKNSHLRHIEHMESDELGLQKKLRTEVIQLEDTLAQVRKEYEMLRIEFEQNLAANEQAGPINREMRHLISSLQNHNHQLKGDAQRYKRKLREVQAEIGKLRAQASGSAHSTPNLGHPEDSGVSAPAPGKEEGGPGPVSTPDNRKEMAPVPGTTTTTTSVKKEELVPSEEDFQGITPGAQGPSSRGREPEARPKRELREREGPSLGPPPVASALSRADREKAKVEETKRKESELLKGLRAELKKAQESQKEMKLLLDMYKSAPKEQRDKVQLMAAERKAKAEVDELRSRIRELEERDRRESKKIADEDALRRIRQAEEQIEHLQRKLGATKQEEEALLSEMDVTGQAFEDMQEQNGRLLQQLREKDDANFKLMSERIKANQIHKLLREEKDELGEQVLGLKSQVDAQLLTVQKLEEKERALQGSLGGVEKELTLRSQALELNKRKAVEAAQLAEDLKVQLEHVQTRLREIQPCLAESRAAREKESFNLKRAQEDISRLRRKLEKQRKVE

[2] = molecular target: T2, RNF-MD S1i (E822K/R826E in RNF20 and K860E in RNF40) (human, UniProt Q5VTR2 321-900; O75150 327-926, E822K | R826E | K860E); experiment: as above
T2 construct: RNF20, human, residues 321-900; RNF40, human, residues 327-926; source: E. coli BL21 Rosetta (DE3), purified from the mixed cell extract (strep-tactin, dextrin, gel filtration); copies: 1 + 1
T2 sequence (Q5VTR2 321-900 E822K/R826E, chain 1 of 2): as the sequence (Q5VTR2 321-900, chain 1 of 2) above, with E502K, R506E counted along it
T2 sequence (O75150 327-926 K860E, chain 2 of 2): as the sequence (O75150 327-926, chain 2 of 2) above, with K534E counted along it

[3] = molecular target: T3, RNF-MD S2i (E427K/K804E in RNF20 and E428K/E431K/E434K/R442E/E832K/E835K in RNF40) (human, UniProt Q5VTR2 321-900; O75150 327-926, E427K | K804E | E428K | E431K | E434K | R442E | E832K | E835K); experiment: as above
T3 construct: RNF20, human, residues 321-900; RNF40, human, residues 327-926; source: E. coli BL21 Rosetta (DE3), purified from the mixed cell extract (strep-tactin, dextrin, gel filtration); copies: 1 + 1
T3 sequence (Q5VTR2 321-900 E427K/K804E, chain 1 of 2): as the sequence (Q5VTR2 321-900, chain 1 of 2) above, with E107K, K484E counted along it
T3 sequence (O75150 327-926 E428K/E431K/E434K/R442E/E832K/E835K, chain 2 of 2): as the sequence (O75150 327-926, chain 2 of 2) above, with E102K, E105K, E108K, R116E, E506K, E509K counted along it

[4] = molecular target: T4, RNF-MD S3i (E783K/D786K in RNF20 and E449K/K818E in RNF40) (human, UniProt Q5VTR2 321-900; O75150 327-926, E783K | D786K | E449K | K818E); experiment: as above
T4 construct: RNF20, human, residues 321-900; RNF40, human, residues 327-926; source: E. coli BL21 Rosetta (DE3), purified from the mixed cell extract (strep-tactin, dextrin, gel filtration); copies: 1 + 1
T4 sequence (Q5VTR2 321-900 E783K/D786K, chain 1 of 2): as the sequence (Q5VTR2 321-900, chain 1 of 2) above, with E463K, D466K counted along it
T4 sequence (O75150 327-926 E449K/K818E, chain 2 of 2): as the sequence (O75150 327-926, chain 2 of 2) above, with E123K, K492E counted along it

[5] = molecular target: T5, Bre1-LR (Bre1 residues 227–700, LBD and RING domains), 6× histidine tag (budding yeast, UniProt Q07457 227-700); experiment: ITC; Lge1-CT (50–60 μM) injected into Bre1-LR (15 μM); 25°C, 20 mM TRIS (pH 7.5), 200 mM sodium chloride
T5 construct: two Bre1 polypeptides form the dimeric coiled-coils of the LBD in the crystal structure; also called WT; source: E. coli BL21 Rosetta (DE3), purified (Ni-NTA, heparin, gel filtration)
T5 sequence (looked up): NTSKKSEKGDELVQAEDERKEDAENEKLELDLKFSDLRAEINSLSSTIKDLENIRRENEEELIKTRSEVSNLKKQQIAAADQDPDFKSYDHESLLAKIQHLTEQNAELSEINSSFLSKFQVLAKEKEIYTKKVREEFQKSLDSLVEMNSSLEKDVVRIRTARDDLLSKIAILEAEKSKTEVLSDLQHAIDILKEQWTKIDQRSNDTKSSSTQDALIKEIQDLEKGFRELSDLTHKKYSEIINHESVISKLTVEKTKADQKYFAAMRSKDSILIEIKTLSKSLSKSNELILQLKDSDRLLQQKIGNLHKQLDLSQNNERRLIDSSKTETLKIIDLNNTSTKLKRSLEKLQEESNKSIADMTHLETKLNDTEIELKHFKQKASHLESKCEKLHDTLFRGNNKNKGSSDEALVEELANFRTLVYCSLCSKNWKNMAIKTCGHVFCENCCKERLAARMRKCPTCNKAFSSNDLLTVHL

[6] = molecular target: T5, Bre1-LR (Bre1 residues 227–700, LBD and …); experiment: SPR; Lge1-CT immobilised on a CM5 chip, Bre1-LR flown over; Biacore 8K, 25°C, 20 mM HEPES (pH 7.5), 200 mM sodium chloride, 0.02% Tween 20

B3: intein-WAC S3 (R622E/E623K/R625E) (domain or fragment, human, UniProt Q9BTA9 570-647, looked up)
chain: HVQGWPADHAEKQASRLREEAHNMGTIHMSEICTELKNLRSLVRVCEIQATLEKQEILFLRQQIKELEKLKNQNSFMV
notes: WAC, human, residues 570-647; source: purified (Ni-NTA, heparin, gel filtration)
Kd [4]: 285 nM
koff [4]: 0.00308 s⁻¹
kon [4]: 10800 M⁻¹ s⁻¹

B6: intein-WAC S1 (D577K/E580K/R587E) (domain or fragment, human, UniProt Q9BTA9 570-647, looked up)
chain: HVQGWPAKHAKKQASRLEEEAHNMGTIHMSEICTELKNLRSLVRVCEIQATLREQRILFLRQQIKELEKLKNQNSFMV
notes: as for B3
Kd [1]: 514 nM
koff [1]: 0.0165 s⁻¹
kon [1]: 32000 M⁻¹ s⁻¹

B7: Lge1-CT E301K/R305E (domain or fragment, budding yeast, UniProt Q02796 261-332, looked up)
chain: KNVKKTNNTESECEKAREVFKESDSIDSALEELNLKINSNKLELELLNNQCDKHALNIQLTQEKLDSLLLMQ
notes: Lge1, budding yeast, residues 261-332; source: E. coli BL21 Rosetta (DE3): cleared cell extract on chitin resin (pull-down); purified (chitin, heparin, gel filtration) for ITC and SPR
Kd [5]: 59.7 ± 38.2 nM
dH [5]: -19.4 ± 2.3 kcal/mol
stoichiometry N [5]: 0.585 ± 0.022
Kd [6]: 81.7 nM

Further lines, results first:

Kd [1]: 504 nM
koff [1]: 0.0234 s⁻¹
kon [1]: 46400 M⁻¹ s⁻¹
Kd [2]: 539 nM
koff [2]: 0.0168 s⁻¹
kon [2]: 31300 M⁻¹ s⁻¹
B1: intein-CBD-tagged WAC-CT (WAC residues 570–647) (domain or fragment, human, UniProt Q9BTA9 570-647, looked up)
chain: HVQGWPADHAEKQASRLREEAHNMGTIHMSEICTELKNLRSLVRVCEIQATLREQRILFLRQQIKELEKLKNQNSFMV
notes: WAC, human, residues 570-647; purified on Ni-NTA although no histidine tag is named; also called intein-WAC; WT; source: purified (Ni-NTA, heparin, gel filtration)

Kd [3]: 262 nM
koff [3]: 0.00338 s⁻¹
kon [3]: 12900 M⁻¹ s⁻¹
B2: intein-WAC S2 (E604K/K606E/R609E/R613E/E616K) (domain or fragment, human, UniProt Q9BTA9 570-647, looked up)
chain: HVQGWPADHAEKQASRLREEAHNMGTIHMSEICTKLENLESLVEVCKIQATLREQRILFLRQQIKELEKLKNQNSFMV
notes: as for B3

Kd [1]: 1190 nM
koff [1]: 0.0138 s⁻¹
kon [1]: 11600 M⁻¹ s⁻¹
B4: intein-WAC S4 (R630E) (domain or fragment, human, UniProt Q9BTA9 570-647, looked up)
chain: HVQGWPADHAEKQASRLREEAHNMGTIHMSEICTELKNLRSLVRVCEIQATLREQRILFLEQQIKELEKLKNQNSFMV
notes: as for B3

Kd [1]: 325 nM
koff [1]: 0.0143 s⁻¹
kon [1]: 44100 M⁻¹ s⁻¹
B5: intein-WAC S5 (E635K/E637K/K640E) (domain or fragment, human, UniProt Q9BTA9 570-647, looked up)
chain: HVQGWPADHAEKQASRLREEAHNMGTIHMSEICTELKNLRSLVRVCEIQATLREQRILFLRQQIKKLKKLENQNSFMV
notes: as for B3
